Paper PMC4716839

How the values were obtained:
[1] = molecular target: Rpa heterotrimer (Rpa70/Rpa32/Rpa14) (Mus musculus) (UniProt Q8VEE4+Q62193+Q9CQ71); assay: bead pull-down; details: Dna2 D278A added after Rpa loading; EMSA: 20 mM Tris-HCl pH 8.0, 80 mM NaCl, 0.3 mM TCEP, 0.2 mg/mL BSA, 2% glycerol, on ice 30 min, 0.075 or 0.3 nM 32P-DNA; 4% native PAGE, 1x TB, 4 C
[2] = molecular target: mouse Rpa heterotrimer (Rpa70, Rpa32, Rpa14) (mouse) (UniProt Q8VEE4)
Chain of mouse Rpa heterotrimer (Rpa70, Rpa32, Rpa14) (mouse) (Q8VEE4 whole entry, chain 1 of 3): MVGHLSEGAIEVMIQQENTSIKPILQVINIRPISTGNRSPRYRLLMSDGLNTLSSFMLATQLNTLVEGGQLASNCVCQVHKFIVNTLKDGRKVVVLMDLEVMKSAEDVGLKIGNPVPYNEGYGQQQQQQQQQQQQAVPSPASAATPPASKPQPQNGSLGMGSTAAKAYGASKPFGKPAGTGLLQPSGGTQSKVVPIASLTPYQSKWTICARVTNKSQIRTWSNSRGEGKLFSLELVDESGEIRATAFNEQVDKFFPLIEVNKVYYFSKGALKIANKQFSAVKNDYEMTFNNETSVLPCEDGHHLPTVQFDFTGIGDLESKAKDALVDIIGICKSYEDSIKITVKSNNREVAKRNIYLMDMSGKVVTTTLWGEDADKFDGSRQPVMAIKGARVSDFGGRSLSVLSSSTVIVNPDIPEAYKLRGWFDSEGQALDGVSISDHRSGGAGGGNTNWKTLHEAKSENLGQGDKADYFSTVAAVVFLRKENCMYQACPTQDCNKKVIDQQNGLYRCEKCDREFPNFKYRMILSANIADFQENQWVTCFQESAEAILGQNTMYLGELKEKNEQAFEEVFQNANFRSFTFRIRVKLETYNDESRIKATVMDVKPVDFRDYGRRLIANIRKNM
Chain of mouse Rpa heterotrimer (Rpa70, Rpa32, Rpa14) (mouse) (Q62193 whole entry, chain 2 of 3, further chain): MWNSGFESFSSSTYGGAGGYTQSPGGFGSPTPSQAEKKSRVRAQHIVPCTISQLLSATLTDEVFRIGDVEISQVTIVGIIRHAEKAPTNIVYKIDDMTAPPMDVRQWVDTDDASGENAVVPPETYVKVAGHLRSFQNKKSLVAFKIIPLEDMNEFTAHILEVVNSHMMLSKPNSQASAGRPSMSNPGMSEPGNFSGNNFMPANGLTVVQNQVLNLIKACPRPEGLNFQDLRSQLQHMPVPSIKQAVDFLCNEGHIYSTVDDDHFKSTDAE
Chain of mouse Rpa heterotrimer (Rpa70, Rpa32, Rpa14) (mouse) (Q9CQ71 whole entry, chain 3 of 3, further chain): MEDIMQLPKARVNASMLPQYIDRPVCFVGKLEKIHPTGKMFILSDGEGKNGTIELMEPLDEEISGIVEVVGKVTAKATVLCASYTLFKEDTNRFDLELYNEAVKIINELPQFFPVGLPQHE

Chain of Rpa heterotrimer (Rpa70/Rpa32/Rpa14) (Mus musculus) (Q8VEE4 whole entry, chain 1 of 3): as the sequence (Q8VEE4 whole entry, chain 1 of 3) above
Chain of Rpa heterotrimer (Rpa70/Rpa32/Rpa14) (Mus musculus) (Q62193 whole entry, chain 2 of 3): as the sequence (Q62193 whole entry, chain 2 of 3, further chain) above
Chain of Rpa heterotrimer (Rpa70/Rpa32/Rpa14) (Mus musculus) (Q9CQ71 whole entry, chain 3 of 3): as the sequence (Q9CQ71 whole entry, chain 3 of 3, further chain) above
Chain of α1-deleted mouse Dna2 (Q6ZQJ5 1-1056, stated change not applied): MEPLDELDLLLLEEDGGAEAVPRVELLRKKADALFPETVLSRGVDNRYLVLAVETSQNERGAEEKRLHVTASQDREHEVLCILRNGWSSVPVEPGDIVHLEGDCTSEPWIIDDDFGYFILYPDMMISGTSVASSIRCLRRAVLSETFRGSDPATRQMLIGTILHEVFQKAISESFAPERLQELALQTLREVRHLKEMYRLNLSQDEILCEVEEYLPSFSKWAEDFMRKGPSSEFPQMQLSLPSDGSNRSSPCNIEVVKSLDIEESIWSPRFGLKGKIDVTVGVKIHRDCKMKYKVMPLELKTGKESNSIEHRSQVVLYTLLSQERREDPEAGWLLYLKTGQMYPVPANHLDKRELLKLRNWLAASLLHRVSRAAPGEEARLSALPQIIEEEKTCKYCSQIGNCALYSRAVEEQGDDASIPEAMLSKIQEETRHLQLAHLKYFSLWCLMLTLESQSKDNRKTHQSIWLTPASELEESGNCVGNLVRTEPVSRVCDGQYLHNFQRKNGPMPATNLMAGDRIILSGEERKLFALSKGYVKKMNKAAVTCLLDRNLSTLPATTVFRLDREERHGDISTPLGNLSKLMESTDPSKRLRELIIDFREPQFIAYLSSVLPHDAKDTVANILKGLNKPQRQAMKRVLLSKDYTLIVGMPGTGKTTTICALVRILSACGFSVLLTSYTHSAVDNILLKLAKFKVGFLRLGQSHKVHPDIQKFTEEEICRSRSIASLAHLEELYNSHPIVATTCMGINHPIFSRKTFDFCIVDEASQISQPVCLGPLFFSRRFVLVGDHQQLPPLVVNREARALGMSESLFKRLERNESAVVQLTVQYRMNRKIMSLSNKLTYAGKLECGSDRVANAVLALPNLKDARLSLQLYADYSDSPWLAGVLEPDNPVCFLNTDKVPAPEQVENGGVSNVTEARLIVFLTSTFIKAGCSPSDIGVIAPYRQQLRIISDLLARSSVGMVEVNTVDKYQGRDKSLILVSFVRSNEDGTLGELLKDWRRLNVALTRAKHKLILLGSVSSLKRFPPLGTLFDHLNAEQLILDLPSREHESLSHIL

Substance: 3'-(dT)26 overhang DNA, biotinylated
- binding signal (% reduction of bound Rpa by Dna2 D278A) [1]: 5

Substance: 5'-(dT)26 overhang DNA, biotinylated
- binding signal (% reduction of bound Rpa by Dna2 D278A) [1]: 30

Substance: α1-deleted mouse Dna2 (from UniProt Q6ZQJ5 1-1056) (enzyme)
- nuclease activity: cleavage of the Rpa-coated 5’ stem-loop overhang substrate 5’SL24 (15 nM, 15 nM Rpa), fold reduction compared to intact Dna2 [2]: 2 fold
